This assay addresses T1, recombinant human CEACAM1 expressed in the murine myeloma cell line NSO (human, UniProt P13688 35-428).
T1 construct: human CEACAM1, recombinant; also called immobilized CEACAM1; CD66a; source: bought: R&D systems (expressed in NSO cells)
T1 sequence (looked up): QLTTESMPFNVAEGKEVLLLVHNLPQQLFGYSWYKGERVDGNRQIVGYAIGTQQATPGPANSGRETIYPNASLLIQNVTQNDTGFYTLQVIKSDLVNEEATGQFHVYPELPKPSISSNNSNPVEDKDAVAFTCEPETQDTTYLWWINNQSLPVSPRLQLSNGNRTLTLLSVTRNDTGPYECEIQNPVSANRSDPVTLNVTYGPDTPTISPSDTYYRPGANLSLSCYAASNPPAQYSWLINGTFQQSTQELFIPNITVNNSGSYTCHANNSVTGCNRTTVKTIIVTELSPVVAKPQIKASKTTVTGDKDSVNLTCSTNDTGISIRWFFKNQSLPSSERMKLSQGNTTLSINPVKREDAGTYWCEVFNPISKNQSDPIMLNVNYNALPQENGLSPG
As to the kind of experiment: ELISA; Gal‐9 or CEACAM1 immobilized overnight at 4°C on Maxisorp plates (coating 0.5 μg/mL); Ig fusion proteins added in PBS‐0.5% BSA, 1 h at room temperature; detected with HRP‐labeled goat‐anti‐human IgG (Fc‐specific), ABTS, OD 405 nm. To be noted: both partners purified. For orientation: An ELISA detects its analyte on a solid surface through an enzyme-linked reagent.

B1: fusion protein representing the extracellular domain of CEACAM1 (CEACAM1‐Ig) (Fc fusion, human, UniProt P13688 35-428, looked up)
chain: T1 sequence (looked up)
notes: CEACAM1 (CD66a), extracellular domain; also called CEACAM1 Ig fusion protein; source: bought: SinoBiological
With B1, the binding result is on record as “binds”.
